Data on two proteins can be found in publication PMC2773364.

Substrate in series [1]: CC(C)C[C@H](NC(=O)OCc1ccccc1)C(=O)N[C@@H](Cc1ccc(O)cc1)C(=O)O
The experiment in a line: purified protein. The note with it: 50 mM acetate buffer, pH 3.7, 30°C.

Substrate in series [2]: O=C(O)CC[C@H](NC(=O)OCc1ccccc1)C(=O)N[C@@H](Cc1ccc(O)cc1)C(=O)O
The experiment in a line: purified protein. The settings on record: 50 mM acetate buffer, pH 3.7, 30°C.

B1: recombinant OcpA (Aspergillus oryzae RIB40) (protein)
chain: YVNNSGICETTKGVNQYSGYLSVGENQNMFFWFFESRNNPQQAPLSAWFNGGPGCSSMIGLFQEHGPCHFVNGEDTPSLNEHSWNNFANMLYIDQPIGVGFSYGDNPVNSTWTAAPYVWKFLQAFYEHFPQYESRDFGIFTESYGGHYGPGFASYILDQNNAIEAGSQKGEKVNLVALGINNGMFDSTLQEKAYITFAYNNTYRQLIDESLKDKLLEAYESECLPAVQKCQQTQTNEDCQNAGSVCGESVENPIMQAGGDFDVYDVREPSNDPNPPETYSKYIARPDIMKAIGARSDYQECADAPGQKFGATGDEYRSTLPDLSEVIKAGVNVLVWAGTADYICNVDGSIAVANAVDFSGHDEFQGKALEAYKVNGKEVGQFKSVDNFHLLTVYDAGHEVPYYQPETALQAFTQILQKKPLSST
For the protein B1, in series [1], the Km is 410 µM, the kcat is 18 s⁻¹ and the kcat/Km was found to be 43900 M⁻¹ s⁻¹. In series [2], the Km came to 260 µM, the kcat was determined as 22.7 s⁻¹ and the kcat/Km came out at 85900 M⁻¹ s⁻¹.

B2: recombinant CpI (Aspergillus oryzae RIB40) (protein)
chain: LPGSTPASVGRRQLPKNPTGVKTLTTANNVTIRYKEPGAEGVCETTPGVKSYSGYVDTSPESHTFFWFFEARHNPETAPITLWLNGGPGSDSLIGLFEELGPCHVNSTFDDYINPHSWNEVSNLLFLSQPLGVGFSYSDTVDGSINPVTGVVENSSFAGVQGRYPTIDATLIDTTNLAAEAAWEILQGFLSGLPSLDSRVQSKDFSLWTESYGGHYGPAFFNHFYEQNERIANGSVNGVQLNFNSLGIINGIIDEAIQAPYYPEFAVNNTYGIKAVNETVYNYMKFANQMPNGCQDLISTCKQTNRTALADYALCAEATNMCRDNVEGPYYAFAGRGVYDIRHPYDDPTPPSYYNKFLAKDSVMDAIGVNINYTQSNNDVYYAFQQTGDFVWPNFIEDLEEILALPVRVSLIYGDADYICNWFGGQAVSLAANYSQAAQFRSAGYTPLKVNGVEYGETREYGNFSFTRVYEAGHEVPYYQPIASLQLFNRTIFGWDIAEGQKKIWPSYKTNGTATATHTQSSVPLPTATSMSSVGMA
For B2, in series [1], the Km amounted to 340 µM, the kcat was determined as 30.3 s⁻¹ and the kcat/Km amounted to 89800 M⁻¹ s⁻¹. Besides, in series [2], the Km came out at 270 µM, the kcat turned out to be 20.1 s⁻¹ and the kcat/Km was 73200 M⁻¹ s⁻¹.
